Results on 29 molecules are retold here after patent US20200095340A1.

Sequences and labels used below:
B1: anti-DLL3 trispecific protein, DLL3 binder 2B010 (protein, part only; not given: CD3 fragment and albumin sdAb, part only)
chain, part: EVQLVESGGGLVQPGGSLTLSCVASGSTSSRNAMGWYRRAPGKQRELVAGISSDGSKLYLDSVKGRFTISRDNAKNSVYLQMNSLRAEDTAVYYCYYFRTVLGSSMRYWGQGTLVTVSSGGGGSGGGSGGGGSGGGSHHHHHH
B2: anti-DLL3 trispecific protein, DLL3 binder 1D08 (protein, part only; not given: CD3 binder and albumin binder, part only)
chain, part: EVQLVESGGGLVQPGGSLTLSCVASGLTSSINAMGWYRRAPGKQRELVAGISSDGSKVYADSVKGRFTISRDNAKNSVYLQMNSLRAEDTAVYYCYYFRMVSGSSMRYWGQGTLVTVSSGGGGSGGGSGGGGSGGGSHHHHHH
B3: anti-DLL3 trispecific protein, DLL3 binder 3B01 (protein, part only; not given: anti-CD3 fragment and anti-albumin sdAb, part only)
chain, part: EVQLVESGGGLVQPGGSLTLSCAASGSSVSFLSMAWYRQAPGKKRELVAGISGDGSTDYIDSVKGRFTISRDNAKNSVYLQMNSLRAEDTAVYYCYAYRWTTRYTYWGQGTLVTVSSGGGGSGGGSGGGGSGGGSHHHHHH
B4: anti-DLL3 trispecific protein, DLL3 binder 3D01 (protein, part only; not given: CD3 binder and albumin binder, part only)
chain, part: EVQLVESGGGLVQPGGSLTLSCAASGSSVSFLSMAWYRQAPGKKRELVAGISRDGSTDYIDSVKGRFTISRDNAKNSVYLQMNSLRAEDTAVYYCYAYRWITRYTYWGQGTLVTVSSGGGGSGGGSGGGGSGGGSHHHHHH
B5: anti-DLL3 trispecific protein, DLL3 binder 3F06 (protein, part only; not given: anti-CD3 fragment and anti-albumin sdAb, part only)
chain, part: EVQLVESGGGLVQPGGSLTLSCAASGSRVSFLSMAWYRQAPGKKRELVAGISADGSTSYIDSVKGRFTISRDNAKNSVYLQMNSLRAEDTAVYYCYAYRWATRYTYWGQGTLVTVSSGGGGSGGGSGGGGSGGGSHHHHHH
B6: anti-DLL3 trispecific protein 1B07 (protein, part only; not given: anti-CD3 and anti-albumin domains, part only)
chain, part: EVQLVESGGGLVQPGGSLTLSCVASGSGSSINAMGWYRRAPGKQRELVAGISSDGSKVYSDSVKGRFTISRDNAKNSVYLQMNSLRAEDTAVYYCYYFRHVSGSSMRYWGQGTLVTVSSGGGGSGGGSGGGGSGGGSHHHHHH
B7: anti-DLL3 trispecific protein 1D04 (protein, part only; not given: CD3 fragment and albumin sdAb, part only)
chain, part: EVQLVESGGGLVQPGGSLTLSCVASGSTSSKNAMGWYRRAPGKQRELVAGISSDGSKVYADSVKGRFTISRDNAKNSVYLQMNSLRAEDTAVYYCYYFRTVSGASMRYWGQGTLVTVSSGGGGSGGGSGGGGSGGGSHHHHHH
B8: anti-DLL3 trispecific protein 1D012 (protein, part only; not given: anti-CD3 fragment and anti-albumin domain, part only)
chain, part: EVQLVESGGGLVQPGGSLTLSCVASGSTSHINAMGWYRRAPGKQRELVAGISSDGSRVYADSVKGRFTISRDNAKNSVYLQMNSLRAEDTAVYYCYYFRTVSGGSMRYWGQGTLVTVSSGGGGSGGGSGGGGSGGGSHHHHHH
B9: anti-DLL3 trispecific protein 1F01 (protein, part only; not given: CD3 fragment and albumin sdAb, part only)
chain, part: EVQLVESGGGLVQPGGSLTLSCVASGSTSSINAMGWYRRAPGKQRELVAGISSDGSKVYGDSVKGRFTISRDNAKNSVYLQMNSLRAEDTAVYYCYYFRTVSRSSMRYWGQGTLVTVSSGGGGSGGGSGGGGSGGGSHHHHHH
B10: anti-DLL3 trispecific protein 2F01 (protein, part only; not given: anti-CD3 and anti-albumin domains, part only)
chain, part: EVQLVESGGGLVQPGGSLTLSCVASGSTSSINAMGWYRRAPGKQRELVAGISSDGSKVYSDSVKGRFTISRDNAKNSVYLQMNSLRAEDTAVYYCYYFRLVSGSSMRYWGQGTLVTVSSGGGGSGGGSGGGGSGGGSHHHHHH
B11: anti-DLL3 trispecific protein 2F02 (protein, part only; not given: anti-CD3 fragment and anti-albumin sdAb, part only)
chain, part: EVQLVESGGGLVQPGGSLTLSCVASGSTSSINAVGWYRRAPGKQRELVAGISSDGSKVYAGSVKGRFTISRDNAKNSVYLQMNSLRAEDTAVYYCYYFRTVSGSYMRYWGQGTLVTVSSGGGGSGGGSGGGGSGGGSHHHHHH
B12: anti-DLL3 trispecific protein 1E08 (protein, part only; not given: anti-CD3 fragment and anti-albumin sdAb, part only)
chain, part: EVQLVESGGGLVQPGGSLTLSCVASGKTSSINAMGWYRRAPGKQRELVAGISSDGSKVIADSVKGRFTISRDNAKNSVYLQMNSLRAEDTAVYYCYYFRTVLGSSMRYWGQGTLVTVSSGGGGSGGGSGGGGSGGGSHHHHHH
B13: anti-DLL3 trispecific protein 4H08 (protein, part only; not given: anti-CD3 fragment and anti-albumin sdAb, part only)
chain, part: EVQLVESGGGLVQPGGSLTLSCAASGSSVKFLSMAWYRQAPGKKRELVAGISADGSTDYVDSVKGRFTISRDNAKNSVYLQMNSLRAEDTAVYYCYAYRWSTRYTYWGQGTLVTVSSGGGGSGGGSGGGGSGGGSHHHHHH
B14: anti-DLL3 trispecific protein 4E010 (protein, part only; not given: anti-CD3 and anti-albumin domains, part only)
chain, part: EVQLVESGGGLVQPGGSLTLSCAASGSSVKFLSMAWYRQAPGKKRELVAGISADGSTDYIDSVKGRFTISRDNAKNSVYLQMNSLRAEDTAVYYCYAYRWRTRYTYWGQGTLVTVSSGGGGSGGGSGGGGSGGGSHHHHHH
B15: anti-DLL3 trispecific protein 4F08 (protein, part only; not given: anti-CD3 and anti-albumin domains, part only)
chain, part: EVQLVESGGGLVQPGGSLTLSCAASGSKVSFLSMAWYRQAPGKKRELVAGISADGSTAYIDSVKGRFTISRDNAKNSVYLQMNSLRAEDTAVYYCYAYRWRTRYTYWGQGTLVTVSSGGGGSGGGSGGGGSGGGSHHHHHH
B16: anti-DLL3 trispecific protein 4A09 (protein, part only; not given: anti-CD3 and anti-albumin domains, part only)
chain, part: EVQLVESGGGLVQPGGSLTLSCAASGSSVKFLSMAWYRQAPGKKRELVAGISADGSTDYIGSVKGRFTISRDNAKNSVYLQMNSLRAEDTAVYYCYAYRWTTRVTYWGQGTLVTVSSGGGGSGGGSGGGGSGGGSHHHHHH
B17: anti-DLL3 trispecific protein 4G05 (protein, part only; not given: CD3 fragment and albumin sdAb, part only)
chain, part: EVQLVESGGGLVQPGGSLTLSCAASGSSVSILSMAWYRQAPGKKRELVAGISADGSTIYIDSVKGRFTISRDNAKNSVYLQMNSLRAEDTAVYYCYAYRWHTRYTYWGQGTLVTVSSGGGGSGGGSGGGGSGGGSHHHHHH
B18: anti-DLL3 trispecific protein 3H03 (protein, part only; not given: anti-CD3 fragment and anti-albumin domain, part only)
chain, part: EVQLVESGGGLVQPGGSLTLSCAASGSSVRFLSMAWYRQAPGKKRELVAGISTDGSTDYIDSVKGRFTISRDNAKNSVYLQMNSLRAEDTAVYYCYALRWTTRYTYWGQGTLVTVSSGGGGSGGGSGGGGSGGGSHHHHHH
B19: anti-DLL3 trispecific protein 4F04 (protein, part only; not given: anti-CD3 fragment and anti-albumin sdAb, part only)
chain, part: EVQLVESGGGLVQPGGSLTLSCAASRSSVSFLSMAWYRQAPGKKRELVAGISTDGSTDYIDSVKGRFTISRDNAKNSVYLQMNSLRAEDTAVYYCYAYRWLTRYTYWGQGTLVTVSSGGGGSGGGSGGGGSGGGSHHHHHH
B20: anti-DLL3 trispecific protein 4G010 (protein, part only; not given: anti-CD3 and anti-albumin domains, part only)
chain, part: EVQLVESGGGLVQPGGSLTLSCAASGHSVSFLSMAWYRQAPGKKRELVAGISADGSTDYIASVKGRFTISRDNAKNSVYLQMNSLRAEDTAVYYCYAYRWSTRYTYWGQGTLVTVSSGGGGSGGGSGGGGSGGGSHHHHHH
B21: anti-DLL3 trispecific protein 3A04 (protein, part only; not given: CD3 binder and albumin binder, part only)
chain, part: EVQLVESGGGLVQPGGSLTLSCAASGSQVSFLSMAWYRQAPGKKRELVAGISRDGSTDYIDSVKGRFTISRDNAKNSVYLQMNSLRAEDTAVYYCYAYRWTTRYIYWGQGTLVTVSSGGGGSGGGSGGGGSGGGSHHHHHH
B22: anti-DLL3 trispecific protein 4E09 (protein, part only; not given: anti-CD3 fragment and anti-albumin sdAb, part only)
chain, part: EVQLVESGGGLVQPGGSLTLSCAASGSSVSFLSSAWYRQAPGKKRELVAGISADGSTLYIDSVKGRFTISRDNAKNSVYLQMNSLRAEDTAVYYCYAYRWTTRSTYWGQGTLVTVSSGGGGSGGGSGGGGSGGGSHHHHHH
B23: anti-DLL3 trispecific protein 3B011 (protein, part only; not given: anti-CD3 and anti-albumin domains, part only)
chain, part: EVQLVESGGGLVQPGGSLTLSCAASGSSVSFLSMAWYRQAPGKKRELVAGISADGSADYIDSVKGRFTISRDNAKNSVYLQMNSLRAEDTAVYYCYAYRWVTRYTYWGQGTLVTVSSGGGGSGGGSGGGGSGGGSHHHHHH
B24: anti-DLL3 trispecific protein 4A02 (protein, part only; not given: anti-CD3 fragment and anti-albumin domain, part only)
chain, part: EVQLVESGGGLVQPGGSLTLSCAASGSSVRFLSMAWYRQAPGKKRELVAGISNDGSTDYIDSVKGRFTISRDNAKNSVYLQMNSLRAEDTAVYYCYAYRWKTRYTYWGQGTLVTVSSGGGGSGGGSGGGGSGGGSHHHHHH
B25: anti-DLL3 trispecific protein 4A07 (protein, part only; not given: CD3 binder and albumin binder, part only)
chain, part: EVQLVESGGGLVQPGGSLTLSCAASGSKVSFLSMAWYRQAPGKKRELVAGISADGSTLYIDSVKGRFTISRDNAKNSVYLQMNSLRAEDTAVYYCYAYRWTTRYRYWGQGTLVTVSSGGGGSGGGSGGGGSGGGSHHHHHH
B26: anti-DLL3 trispecific protein 3H01 (protein, part only; not given: CD3 binder and albumin binder, part only)
chain, part: EVQLVESGGGLVQPGGSLTLSCVASGSSVKFLSMAWYRQAPGKKRELVAGISGDGSTTYIDSVKGRFTISRDNAKNSVYLQMNSLRAEDTAVYYCYAYRWTTRRTYWGQGTLVTVSSGGGGSGGGSGGGGSGGGSHHHHHH
B27: anti-DLL3 trispecific protein 4A05 (protein, part only; not given: anti-CD3 and anti-albumin domains, part only)
chain, part: EVQLVESGGGLVQPGGSLTLSCAASGSSVSFLSLAWYRQAPGKKRELVAGISADGSTDYIDSVKGRFTISRDNAKNSVYLQMNSLRAEDTAVYYCYAYRWKTRRTYWGQGTLVTVSSGGGGSGGGSGGGGSGGGSHHHHHH
B28: anti-DLL3 trispecific protein 3C02 (protein, part only; not given: anti-CD3 and anti-albumin domains, part only)
chain, part: EVQLVESGGGLVQPGGSLTLSCAASGSSVRFLSMAWYRQAPGKKRELVAGISADGSTIYIDSVKGRFTISRDNAKNSVYLQMNSLRAEDTAVYYCYAYRWRTRYTYWGQGTLVTVSSGGGGSGGGSGGGGSGGGSHHHHHH
B29: anti-DLL3 trispecific protein 4D010 (protein, part only; not given: anti-CD3 fragment and anti-albumin sdAb, part only)
chain, part: EVQLVESGGGLVQPGGSLTLSCAASGSSVSFLSMAWYRQAPGKKRELVAGISADGSTDYIHSVKGRFTISRDNAKNSVYLQMNSLRAEDTAVYYCYAYRWRTRYTYWGQGTLVTVSSGGGGSGGGSGGGGSGGGSHHHHHH

One may read the Kd as a measure of binding affinity in units of concentration. Lower therefore signals higher affinity.

The target of the first assay is biotinylated human DLL3 protein expressed as a human IgG1 fusion protein (human) (UniProt Q9NYJ7). As to the kind of experiment: Octet, biotinylated human DLL3-IgG1 fusion on streptavidin tips, single 50 nM, conditioned medium (relative KD).
Target sequence in this assay (Q9NYJ7 27-492): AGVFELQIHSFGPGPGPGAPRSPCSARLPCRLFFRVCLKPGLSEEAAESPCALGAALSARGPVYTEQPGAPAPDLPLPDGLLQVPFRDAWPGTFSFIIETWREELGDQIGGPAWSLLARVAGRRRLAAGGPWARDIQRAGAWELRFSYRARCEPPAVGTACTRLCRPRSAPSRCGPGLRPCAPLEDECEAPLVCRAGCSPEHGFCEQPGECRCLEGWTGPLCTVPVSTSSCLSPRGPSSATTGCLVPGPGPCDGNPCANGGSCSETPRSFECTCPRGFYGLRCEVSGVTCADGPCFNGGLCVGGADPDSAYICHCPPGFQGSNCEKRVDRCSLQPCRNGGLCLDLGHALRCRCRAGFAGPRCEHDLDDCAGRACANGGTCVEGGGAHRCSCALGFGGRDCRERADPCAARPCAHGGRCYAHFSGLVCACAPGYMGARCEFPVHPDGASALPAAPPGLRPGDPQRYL
With B1, the Kd worked out at 10 nM.

Molecule B2 showed a Kd of 10 nM.

As to B3, the Kd is 10 nM.

As to B4, the Kd stood at 10 nM.

As for B5, the Kd is 9.9 nM.

A further assay shares this target. As to the kind of experiment: Octet BLI; biotinylated huDLL3-IgG1 fusion on streptavidin tips; single 50 nM; conditioned medium.
Target sequence in this assay (Q9NYJ7 other isoform, or with tags, fused parts or gaps): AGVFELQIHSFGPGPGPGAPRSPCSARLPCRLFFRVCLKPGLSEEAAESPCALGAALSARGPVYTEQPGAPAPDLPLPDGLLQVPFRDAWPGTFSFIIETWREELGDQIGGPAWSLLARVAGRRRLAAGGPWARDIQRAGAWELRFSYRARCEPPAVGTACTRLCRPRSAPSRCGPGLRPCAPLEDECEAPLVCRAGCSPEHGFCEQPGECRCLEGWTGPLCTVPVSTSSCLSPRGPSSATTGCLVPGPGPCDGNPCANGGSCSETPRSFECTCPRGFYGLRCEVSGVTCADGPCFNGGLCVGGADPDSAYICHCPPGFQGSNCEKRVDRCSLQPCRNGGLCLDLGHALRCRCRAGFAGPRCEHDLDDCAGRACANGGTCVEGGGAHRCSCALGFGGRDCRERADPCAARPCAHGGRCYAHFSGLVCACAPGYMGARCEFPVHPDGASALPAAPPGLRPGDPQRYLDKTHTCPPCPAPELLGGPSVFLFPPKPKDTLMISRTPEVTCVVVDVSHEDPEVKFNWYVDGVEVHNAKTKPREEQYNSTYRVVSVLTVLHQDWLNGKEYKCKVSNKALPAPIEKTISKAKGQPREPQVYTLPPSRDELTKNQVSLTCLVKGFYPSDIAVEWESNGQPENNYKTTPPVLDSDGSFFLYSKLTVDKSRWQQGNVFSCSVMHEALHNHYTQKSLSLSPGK
The molecule B6 came in with a Kd of 8.9 nM.

As to B7, the Kd is 9.7 nM.

Consider B8, for which the Kd came to 9.3 nM.

In the case of B9, the Kd stood at 9.4 nM.

For the molecule B10, the Kd is 9.2 nM.

Take B11: the Kd was found to be 9.6 nM.

Molecule B12 returned a Kd of 9.4 nM.

As to B13, the Kd was determined as 8.9 nM.

B14 returned a dissociation constant (Kd) of 9 nM.

Consider B15, for which the Kd was 9 nM.

The molecule B16 gave a Kd of 9 nM.

Consider B17, for which the Kd came to 9.7 nM.

On to B18, for which the Kd stood at 9.9 nM.

Molecule B19 came in with a Kd of 9.8 nM.

In turn, B20 came in with a Kd of 9.9 nM.

As for B21, the Kd came out at 9.2 nM.

Turning to B22, the equilibrium dissociation constant (Kd) was 9.1 nM.

Consider B23, for which the Kd worked out at 9 nM.

Turning to B24, the Kd was 9 nM.

Regarding B25, the Kd is 9.8 nM.

With B26, the Kd was determined as 9 nM.

Take B27: the Kd was determined as 9.4 nM.

Take B28: the Kd was 9.1 nM.

Turning to B29, the Kd is 9.9 nM.
